Measurements taken from article PMC9482650, “Quantitative fragmentomics allow affinity mapping of interactomes” (Nature Communications, 2022).

B1: FZD8, Q9H461 (peptide)
chain: YPKQMPLSQV
B2: NOS1AP, O75052 (peptide)
chain: GDGLDDEIAV
B3: SMCHD1, A6NHR9 (peptide)
chain: QNRIITKTDV

Target: T1, RAPGEF6, Q8TEU7
T1 sequence (Q8TEU7 525-625, limits assumed, looked up): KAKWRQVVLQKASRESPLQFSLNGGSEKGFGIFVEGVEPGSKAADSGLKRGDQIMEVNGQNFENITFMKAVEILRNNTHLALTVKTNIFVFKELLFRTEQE
Experiment: holdup assay
Parameters: key: below the threshold = too weak to quantify, mostly under pKd 3.1 to 4
Conditions: plain residues with an end cap or a label only (N-terminal biotin on a linker: ado-ado)

| Binder | pKd |
| --- | --- |
| B1 | below the threshold |
| B2 | below the threshold |
| B3 | below the threshold |

Target: T2, GRIP1_5, Q9Y3R0
T2 sequence (Q9Y3R0 568-668, limits assumed, looked up): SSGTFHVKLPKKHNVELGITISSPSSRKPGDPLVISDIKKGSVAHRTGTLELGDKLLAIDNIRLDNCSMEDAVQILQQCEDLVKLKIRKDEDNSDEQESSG
Experiment: holdup assay
Parameters: key: below the threshold = too weak to quantify, mostly under pKd 3.1 to 4
Conditions: plain residues with an end cap or a label only (N-terminal biotin on a linker: ado-ado)

| Binder | pKd |
| --- | --- |
| B1 | below the threshold |
| B2 | below the threshold |
| B3 | below the threshold |

Target: SCRIB_3, Q14160
Sequence (Q14160 999-1103): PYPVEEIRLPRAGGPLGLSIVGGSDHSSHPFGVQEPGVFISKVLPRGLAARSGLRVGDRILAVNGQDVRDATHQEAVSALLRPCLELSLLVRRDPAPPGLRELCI
Experiment: holdup assay
Parameters: key: below the threshold = too weak to quantify, mostly under pKd 3.1 to 4
Conditions: plain residues with an end cap or a label only (N-terminal biotin on a linker: ado-ado)

| Binder | pKd |
| --- | --- |
| B1 | below the threshold |
| B2 | below the threshold |
| B3 | 3.81 |

Target: TJP2_1, Q9UDY2
Sequence (Q9UDY2 24-128): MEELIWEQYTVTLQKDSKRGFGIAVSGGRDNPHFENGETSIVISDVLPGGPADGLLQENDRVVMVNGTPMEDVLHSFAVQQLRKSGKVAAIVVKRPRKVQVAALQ
Experiment: holdup assay
Parameters: key: below the threshold = too weak to quantify, mostly under pKd 3.1 to 4
Conditions: plain residues with an end cap or a label only (N-terminal biotin on a linker: ado-ado)

| Binder | pKd |
| --- | --- |
| B1 | below the threshold |
| B2 | below the threshold |
| B3 | 3.61 |

Target: GRIP2_5, Q9C0E4
Sequence (Q9C0E4 544-642): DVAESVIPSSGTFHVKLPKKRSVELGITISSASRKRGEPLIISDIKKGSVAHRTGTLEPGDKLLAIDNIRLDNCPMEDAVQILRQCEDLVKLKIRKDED
Experiment: holdup assay
Parameters: key: below the threshold = too weak to quantify, mostly under pKd 3.1 to 4
Conditions: plain residues with an end cap or a label only (N-terminal biotin on a linker: ado-ado)

| Binder | pKd |
| --- | --- |
| B1 | below the threshold |
| B2 | below the threshold |
| B3 | below the threshold |

Target: T3, MPDZ_12, O75970
T3 sequence (O75970 1857-1958, limits assumed, looked up): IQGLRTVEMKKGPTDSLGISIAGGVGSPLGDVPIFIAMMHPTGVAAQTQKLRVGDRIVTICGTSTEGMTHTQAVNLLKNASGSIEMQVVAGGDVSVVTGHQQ
Experiment: holdup assay
Parameters: key: below the threshold = too weak to quantify, mostly under pKd 3.1 to 4
Conditions: plain residues with an end cap or a label only (N-terminal biotin on a linker: ado-ado)

| Binder | pKd |
| --- | --- |
| B1 | below the threshold |
| B2 | below the threshold |
| B3 | below the threshold |

Target: T4, DFNB31_3, Q9P202
T4 sequence (Q9P202 811-907, limits assumed, looked up): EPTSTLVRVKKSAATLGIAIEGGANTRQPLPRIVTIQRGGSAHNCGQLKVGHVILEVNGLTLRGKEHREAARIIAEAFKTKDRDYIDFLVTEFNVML
Experiment: holdup assay
Parameters: key: below the threshold = too weak to quantify, mostly under pKd 3.1 to 4
Conditions: plain residues with an end cap or a label only (N-terminal biotin on a linker: ado-ado)

| Binder | pKd |
| --- | --- |
| B1 | below the threshold |
| B2 | below the threshold |
| B3 | below the threshold |

Target: T5, LIN7B, Q9HAP6
T5 sequence (Q9HAP6 88-185, limits assumed, looked up): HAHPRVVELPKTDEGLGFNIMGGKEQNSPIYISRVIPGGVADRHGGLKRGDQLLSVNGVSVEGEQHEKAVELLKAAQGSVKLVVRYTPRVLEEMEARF
Experiment: holdup assay
Parameters: key: below the threshold = too weak to quantify, mostly under pKd 3.1 to 4
Conditions: plain residues with an end cap or a label only (N-terminal biotin on a linker: ado-ado)

| Binder | pKd |
| --- | --- |
| B1 | below the threshold |
| B2 | 3.52 |
| B3 | below the threshold |

Target: T6, NHERF3_4, Q5T2W1
T6 sequence (Q5T2W1 373-468, limits assumed, looked up): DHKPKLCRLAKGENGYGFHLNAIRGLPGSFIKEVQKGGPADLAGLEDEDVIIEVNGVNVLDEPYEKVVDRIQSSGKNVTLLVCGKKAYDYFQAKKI
Experiment: holdup assay
Parameters: key: below the threshold = too weak to quantify, mostly under pKd 3.1 to 4
Conditions: plain residues with an end cap or a label only (N-terminal biotin on a linker: ado-ado)

| Binder | pKd |
| --- | --- |
| B1 | below the threshold |
| B2 | below the threshold |
| B3 | below the threshold |

Target: LNX1_3, Q8TBB1
Sequence (Q8TBB1 500-596): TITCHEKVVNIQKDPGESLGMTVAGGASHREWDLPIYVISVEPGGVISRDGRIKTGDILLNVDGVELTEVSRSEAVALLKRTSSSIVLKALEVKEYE
Experiment: holdup assay
Parameters: key: below the threshold = too weak to quantify, mostly under pKd 3.1 to 4
Conditions: plain residues with an end cap or a label only (N-terminal biotin on a linker: ado-ado)

| Binder | pKd |
| --- | --- |
| B1 | below the threshold |
| B2 | below the threshold |
| B3 | below the threshold |

Target: T7, LRRC7, Q96NW7
T7 sequence (Q96NW7 1440-1537, limits assumed, looked up): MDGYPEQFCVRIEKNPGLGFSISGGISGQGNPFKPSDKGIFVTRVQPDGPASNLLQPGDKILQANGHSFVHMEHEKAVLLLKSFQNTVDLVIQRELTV
Experiment: holdup assay
Parameters: key: below the threshold = too weak to quantify, mostly under pKd 3.1 to 4
Conditions: plain residues with an end cap or a label only (N-terminal biotin on a linker: ado-ado)

| Binder | pKd |
| --- | --- |
| B1 | below the threshold |
| B2 | below the threshold |
| B3 | below the threshold |

Target: T8, MPP2, Q14168
T8 sequence (Q14168 180-250, limits assumed, looked up): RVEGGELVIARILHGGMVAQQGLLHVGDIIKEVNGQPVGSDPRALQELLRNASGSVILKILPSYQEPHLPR
Experiment: holdup assay
Parameters: key: below the threshold = too weak to quantify, mostly under pKd 3.1 to 4
Conditions: plain residues with an end cap or a label only (N-terminal biotin on a linker: ado-ado)

| Binder | pKd |
| --- | --- |
| B1 | below the threshold |
| B2 | below the threshold |
| B3 | below the threshold |

Target: T9, PDZD2_2, O15018
T9 sequence (O15018 329-429, limits assumed, looked up): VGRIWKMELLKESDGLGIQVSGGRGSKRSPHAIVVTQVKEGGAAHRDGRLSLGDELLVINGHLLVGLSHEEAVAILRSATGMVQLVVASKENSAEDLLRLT
Experiment: holdup assay
Parameters: key: below the threshold = too weak to quantify, mostly under pKd 3.1 to 4
Conditions: plain residues with an end cap or a label only (N-terminal biotin on a linker: ado-ado)

| Binder | pKd |
| --- | --- |
| B1 | 4.23 |
| B2 | 3.55 |
| B3 | 4.4 |

Target: SNX27, Q96L92
Experiment: holdup assay
Parameters: key: below the threshold = too weak to quantify, mostly under pKd 3.1 to 4
Conditions: plain residues with an end cap or a label only (N-terminal biotin on a linker: ado-ado)

| Binder | pKd |
| --- | --- |
| B1 | 3.97 |
| B2 | 4.19 |
| B3 | 3.84 |

Target: NHERF2_2, Q15599
Sequence (Q15599 142-238): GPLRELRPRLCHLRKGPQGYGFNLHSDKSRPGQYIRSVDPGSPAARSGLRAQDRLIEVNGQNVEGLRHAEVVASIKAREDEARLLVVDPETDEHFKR
Experiment: holdup assay
Parameters: key: below the threshold = too weak to quantify, mostly under pKd 3.1 to 4
Conditions: plain residues with an end cap or a label only (N-terminal biotin on a linker: ado-ado)

| Binder | pKd |
| --- | --- |
| B1 | below the threshold |
| B2 | below the threshold |
| B3 | below the threshold |

Target: MAST2, Q6P0Q8
Sequence (Q6P0Q8 1099-1202): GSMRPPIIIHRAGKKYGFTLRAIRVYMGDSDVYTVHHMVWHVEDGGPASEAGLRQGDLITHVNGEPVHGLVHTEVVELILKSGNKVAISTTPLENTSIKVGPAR
Experiment: holdup assay
Parameters: key: below the threshold = too weak to quantify, mostly under pKd 3.1 to 4
Conditions: plain residues with an end cap or a label only (N-terminal biotin on a linker: ado-ado)

| Binder | pKd |
| --- | --- |
| B1 | 4.29 |
| B2 | 4.04 |
| B3 | 5.05 |

Target: T10, DLG3_3, Q92796
T10 sequence (Q92796 374-475, limits assumed, looked up): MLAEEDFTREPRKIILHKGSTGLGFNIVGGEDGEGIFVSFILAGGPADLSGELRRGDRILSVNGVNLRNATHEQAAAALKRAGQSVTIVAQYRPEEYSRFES
Experiment: holdup assay
Parameters: key: below the threshold = too weak to quantify, mostly under pKd 3.1 to 4
Conditions: plain residues with an end cap or a label only (N-terminal biotin on a linker: ado-ado)

| Binder | pKd |
| --- | --- |
| B1 | below the threshold |
| B2 | below the threshold |
| B3 | below the threshold |

Target: DLG1_1, Q12959
Experiment: holdup assay
Parameters: key: below the threshold = too weak to quantify, mostly under pKd 3.1 to 4
Conditions: plain residues with an end cap or a label only (N-terminal biotin on a linker: ado-ado)

| Binder | pKd |
| --- | --- |
| B1 | below the threshold |
| B2 | below the threshold |
| B3 | 3.63 |

Target: T11, GRIP1_4, Q9Y3R0
T11 sequence (Q9Y3R0 467-571, limits assumed, looked up): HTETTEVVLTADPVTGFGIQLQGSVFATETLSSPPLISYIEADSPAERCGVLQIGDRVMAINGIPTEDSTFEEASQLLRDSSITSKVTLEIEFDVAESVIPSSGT
Experiment: holdup assay
Parameters: key: below the threshold = too weak to quantify, mostly under pKd 3.1 to 4
Conditions: plain residues with an end cap or a label only (N-terminal biotin on a linker: ado-ado)

| Binder | pKd |
| --- | --- |
| B1 | below the threshold |
| B2 | below the threshold |
| B3 | below the threshold |

Target: T12, PARD3B_1, Q8TEW8
T12 sequence (Q8TEW8 196-299, limits assumed, looked up): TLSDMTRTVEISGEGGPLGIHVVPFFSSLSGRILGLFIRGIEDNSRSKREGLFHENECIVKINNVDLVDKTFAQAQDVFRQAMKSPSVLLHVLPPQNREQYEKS
Experiment: holdup assay
Parameters: key: below the threshold = too weak to quantify, mostly under pKd 3.1 to 4
Conditions: plain residues with an end cap or a label only (N-terminal biotin on a linker: ado-ado)

| Binder | pKd |
| --- | --- |
| B1 | below the threshold |
| B2 | below the threshold |
| B3 | below the threshold |

Target: SCRIB_1, Q14160
Sequence (Q14160 718-814): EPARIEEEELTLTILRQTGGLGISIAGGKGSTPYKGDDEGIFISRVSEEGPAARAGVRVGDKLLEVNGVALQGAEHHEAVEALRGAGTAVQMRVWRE
Experiment: holdup assay
Parameters: key: below the threshold = too weak to quantify, mostly under pKd 3.1 to 4
Conditions: plain residues with an end cap or a label only (N-terminal biotin on a linker: ado-ado)

| Binder | pKd |
| --- | --- |
| B1 | below the threshold |
| B2 | below the threshold |
| B3 | 3.88 |

Target: T13, DFNB31_2, Q9P202
T13 sequence (Q9P202 274-371, limits assumed, looked up): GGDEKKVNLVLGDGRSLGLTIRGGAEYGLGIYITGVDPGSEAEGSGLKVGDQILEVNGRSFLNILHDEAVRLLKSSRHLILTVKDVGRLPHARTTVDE
Experiment: holdup assay
Parameters: key: below the threshold = too weak to quantify, mostly under pKd 3.1 to 4
Conditions: plain residues with an end cap or a label only (N-terminal biotin on a linker: ado-ado)

| Binder | pKd |
| --- | --- |
| B1 | below the threshold |
| B2 | below the threshold |
| B3 | below the threshold |

Target: Inadl_2, Q8NI35
Sequence (Q8NI35 238-335): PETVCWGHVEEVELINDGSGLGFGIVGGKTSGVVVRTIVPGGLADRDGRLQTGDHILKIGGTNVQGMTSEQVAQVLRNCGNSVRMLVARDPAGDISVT
Experiment: holdup assay
Parameters: key: below the threshold = too weak to quantify, mostly under pKd 3.1 to 4
Conditions: plain residues with an end cap or a label only (N-terminal biotin on a linker: ado-ado)

| Binder | pKd |
| --- | --- |
| B1 | below the threshold |
| B2 | 3.99 |
| B3 | below the threshold |

Target: PDZRN4_1, Q6ZMN7
Sequence (Q6ZMN7 213-318): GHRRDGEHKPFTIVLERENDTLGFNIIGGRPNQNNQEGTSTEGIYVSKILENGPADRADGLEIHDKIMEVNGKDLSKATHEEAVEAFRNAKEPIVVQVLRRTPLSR
Experiment: holdup assay
Parameters: key: below the threshold = too weak to quantify, mostly under pKd 3.1 to 4
Conditions: plain residues with an end cap or a label only (N-terminal biotin on a linker: ado-ado)

| Binder | pKd |
| --- | --- |
| B1 | below the threshold |
| B2 | below the threshold |
| B3 | below the threshold |
